Measured values reported in paper PMC11162425.

What was measured:
[1] = molecular target: Legionella collagen-like protein (Lcl) from L. pneumophila strain 130b, intact recombinant (residues 1-401) (Legionella pneumophila strain 130b); assay: SEC-MALS
[2] = molecular target: Lcl-N GFP fusion (N-GFP) (Legionella pneumophila strain 130b); assay: SEC

Substance | stoichiometry N [1] | stoichiometry N [2]
Legionella collagen-like protein (Lcl) from L. pneumophila strain 130b, intact recombinant (residues 1-401) (natural protein) | 3 | –
Lcl-N GFP fusion (N-GFP) (domain or fragment) | – | 3
